Data on 18 molecules can be found in patent US11053304 (CENTIVAX, dated 2021).

Holding throughout (experiment): SPR, scFv captured via anti-V5, RBD as analyte
Background: In SPR one partner is held on a chip, and binding of the other changes the refractive index at the surface.

Assay [1] deals with T1, SARS-CoV-2 Receptor Binding Domain (RBD) protein (SARS-CoV-2, UniProt P0DTC2 319-541).
The target of assay [2] is T1, SARS-CoV-2 Receptor Binding Domain …. This is another data set of the same source.
Assay [3] addresses MERS Receptor Binding Domain (RBD) protein (MERS coronavirus, UniProt K9N5Q8 367-606).
Assay [4] deals with SARS-CoV-1 Receptor Binding Domain (RBD) protein (SARS-CoV-1, UniProt P59594 306-527).

A word on the Kd: it is the equilibrium constant for the complex coming apart. A low value points to a tighter complex. Broadly, the koff is the first-order rate constant of dissociation. High values mean a short-lived complex, low ones a long-lived complex. Broadly, the kon is the rate constant with which the complex forms. Lower therefore signals slower complex formation.

Positions count from the first letter of the chain named. Where two headings read alike, the source gives them in different places.

B1: COVID19_P20_F02 (scFv, V domains shown)
VH: EVQLVESGGGLVQPGGSLRLSCAASGFAFSNYGMHWIRQAPGKGLEWVSGIDGSGGTAHYADSVKGRFTISRDNSKNTLYLQMNSLRAEDTAVYYCVTNMDNSRDYFPHYFHDMDVWGQGTLVTVSS
VL: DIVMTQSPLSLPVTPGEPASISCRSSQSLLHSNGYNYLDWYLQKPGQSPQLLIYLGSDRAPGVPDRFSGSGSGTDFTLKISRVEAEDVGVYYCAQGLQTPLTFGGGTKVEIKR
In assay [1], B1 had a Kd of 17.8 nM, a koff of 0.00081 s⁻¹ and a kon of 45500 M⁻¹ s⁻¹. In addition, the Kd in assay [2] is under 50 nM. Also, the binding result in assay [3] is recorded as “no binding (tested: up to 300 nM)”. Further, in assay [4], the binding result is recorded as “no binding (tested: up to 300 nM)”.

B2: COVID19_P20_A11 (scFv, V domains shown)
VH: B1 VH with A28T, N31S, G33A, I37V, G50A, D52S, G56D, T57N, A58T, H59Y
VL: not shown
In assay [1], B2 showed a Kd of 20.2 nM, a koff of 0.000872 s⁻¹ and a kon of 43100 M⁻¹ s⁻¹. Further, the Kd in assay [2] is under 50 nM. Also, the binding result in assay [3] was “no binding (tested: up to 300 nM)”. Moreover, the binding result in assay [4] is given as “no binding (tested: up to 300 nM)”.

B3: COVID19_P19_F02 (scFv, V domains shown)
VH: B1 VH with A28T, N31S, I37V, G50A, I51Y, D52S, T57Y, A58T, H59Y, Y60F
VL: DIVMTQSPLSLPVTPGEPASISCKSSQSLLHINGFNYLDWFLQKPGQSPQLLIYLGSNRAPGVPDRFSGSGSGTDFTLKISRVEAEDVGVYYCQQSLQNPRTFGGGTKVEIKR
On to B3, for which the Kd was 36.1 nM in assay [1] and under 50 nM in assay [2]. Also, the koff in assay [1] amounted to 0.00384 s⁻¹. In addition, the kon in assay [1] turned out to be 106000 M⁻¹ s⁻¹. Besides, the binding result in assay [3] and in assay [4] was “no binding (tested: up to 300 nM)” in each case.

B4: COVID19_P08_C03 (scFv, V domains shown)
VH: EVQLVESGGGLVQPGGSLRLSCAASGFTFSSYAMHWVRQAPGKGLEWVAVISSSGRNKFYADSVKGRFTISRDNSKNTLYLQMNSLRAEDTAVYYCVTNLDNSRDYFPHYFHDMDVWGQGTLVTVSS
VL: not shown
B4 yielded a Kd in assay [2] of under 50 nM. Besides, the binding result in assay [3] and in assay [4] was “no binding (tested: up to 300 nM)” throughout.

B5: COVID19_P20_F08 (scFv, V domains shown)
VH: B4 VH with A49S, S53A, R56G, K58T, F59Y
VL: DIVMTQSPLSLPVTPGEPASISCRSSRSLLHTNGLNYIDWYLQKPGQSPQLLIYLGSNRASGVPDRFSGSGSGTDFTLKISRVEAEDVGVYYCTQALQTPISFGGGTKVEIKR
In the case of B5, the dissociation constant Kd in assay [2] was under 50 nM. For the same molecule, the binding result in assay [3] and in assay [4] was “no binding (tested: up to 300 nM)” throughout.

B6: COVID19_P08_F07 (scFv, V domains shown)
VH: B1 VH with A28I, S30T, G33A, M34L, I37V, G50A, D52S, T57S, A58T, M100L
VL: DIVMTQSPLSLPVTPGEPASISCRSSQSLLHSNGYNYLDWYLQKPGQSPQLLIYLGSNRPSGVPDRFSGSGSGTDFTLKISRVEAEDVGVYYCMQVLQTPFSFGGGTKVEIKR
Regarding B6, the Kd in assay [2] is under 50 nM. The binding result in assay [3] and in assay [4] was “no binding (tested: up to 300 nM)” each time.

B7: COVID19_P07_F11 (scFv, V domains shown)
VH: B1 VH with A28T, N31S, G50A, I51V, D52S, G53A, G56D, T57R, A58T, M100L
VL: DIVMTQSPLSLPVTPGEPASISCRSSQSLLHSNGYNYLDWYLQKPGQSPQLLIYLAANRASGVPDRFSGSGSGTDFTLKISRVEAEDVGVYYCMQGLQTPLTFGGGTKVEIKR
Molecule B7 came in with a Kd in assay [2] of under 50 nM. Moreover, the binding result in assay [3] and in assay [4] was “no binding (tested: up to 300 nM)” in each case.

B8: COVID19_P08_H09 (scFv, V domains shown)
VH: EVQLVESGGGLVQPGGSLRLSCAASGFTFSDYALHWVRQAPGKGLEWVSGVSWNGSRTHYADSVKGRFTISRDNSKNTLYLQMNSLRAEDTAVYYCVTNMDNSRDYFPHYFHDMDVWGQGTLVTVSS
VL: not shown
On to B8, for which, in assay [1], the Kd was 1.1 nM, the koff stood at 5.7e-05 s⁻¹ and the kon is 51000 M⁻¹ s⁻¹. Besides, the binding result in assay [3] is “no binding (tested: up to 300 nM)”. In addition, the binding result in assay [4] is “no binding (tested: up to 300 nM)”.

B9: COVID19_P19_C08 (scFv, V domains shown)
VH: B4 VH with A49S, V50A, S53A, G55S, R56A, N57G, K58A, F59Y, L100M
VL: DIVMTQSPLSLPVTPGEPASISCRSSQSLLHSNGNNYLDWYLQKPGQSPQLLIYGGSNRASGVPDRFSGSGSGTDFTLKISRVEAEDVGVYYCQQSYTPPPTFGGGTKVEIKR
For the molecule B9, the Kd in assay [1] was 27.6 nM; in assay [2] it was under 50 nM. In assay [1], this molecule gave a koff of 0.0047 s⁻¹. The molecule further came in with a kon in assay [1] of 170000 M⁻¹ s⁻¹. In addition, the binding result in assay [3] and in assay [4] was “no binding (tested: up to 300 nM)” each time.

B10: COVID19_P07_F01 (scFv, V domains shown)
VH: B4 VH with A49S, V50A, I51V, S52G, S53D, N57S, K58T, F59Y
VL: not shown
Regarding B10, in assay [1], binding was characterised by a dissociation constant (Kd) of 0.8 nM, the koff was determined as 5.7e-05 s⁻¹ and the kon is 68000 M⁻¹ s⁻¹. Further, in assay [2], the Kd is under 50 nM. For the same molecule, the binding result in assay [3] is recorded as “no binding (tested: up to 300 nM)”. Also, the binding result in assay [4] is given as “no binding (tested: up to 300 nM)”.

B11: COVID19_P19_C12 (scFv, V domains shown)
VH: B8 VH with S30R, D31N, L34M, G50A, W53S, N54S, S56G, R57S, T58P, H59Y
VL: DIVMTQSPLSLPVTPGEPASISCRSSQSLVHSDGDNYLNWYLQKPGQSPQLLIYSGSYRASGVPDRFSGSGSGTDFTLKISRVEAEDVGVYYCMQGTHWPLTFGGGTKVEIKR
Regarding B11, the Kd in assay [2] is under 50 nM. Also, the binding result in assay [3] and in assay [4] was “no binding (tested: up to 300 nM)” each time.

B12: COVID19_P08_B11 (scFv, V domains shown)
VH: B8 VH with D31S, A33G, L34M, V37I, G50A, W53A, N54S, S56D, M100L
VL: DIVMTQSPLSLPVTPGEPASISCRSSQSLLHSNGYNRLAWYLQKPGQSPQLLIYLGSYRASGVPDRFSGSGSGTDFTLKISRVEAEDVGVYYCMQALQTPSFGGGTKVEIKR
B12 displayed a Kd in assay [2] of under 50 nM. Further, the binding result in assay [3] and in assay [4] was “no binding (tested: up to 300 nM)” each time.

B13: COVID19_P07_G06 (scFv, V domains shown)
VH: EVQLVESGGGLVQPGGSLRLSCAASGFTFSSYAMHWVRQAPGKGLEWVSAIGAGGGTYYADSVKGRFTISRDNSKNTLYLQMNSLRAEDTAVYYCVTNLDNSRDYFPHYFHDMDVWGQGTLVTVSS
VL: B12 VL with R37Y, A39D, L55G, G56A, Y58T, S61T, A96T, S101R
Turning to B13, in assay [1], the Kd was found to be 1.6 nM, the koff stood at 5.7e-05 s⁻¹ and the kon came out at 36300 M⁻¹ s⁻¹. Besides, the Kd in assay [2] was under 50 nM. In addition, in assay [3], the binding result is given as “no binding (tested: up to 300 nM)”. The binding result in assay [4] was “no binding (tested: up to 300 nM)”.

B14: COVID19_P07_D08 (scFv, V domains shown)
VH: B13 VH with S30R, S31N, A53T, G56D, L99M
VL: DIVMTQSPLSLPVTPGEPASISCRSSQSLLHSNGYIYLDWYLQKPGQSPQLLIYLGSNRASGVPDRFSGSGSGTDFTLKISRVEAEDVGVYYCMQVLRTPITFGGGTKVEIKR
Turning to B14, in assay [1], the Kd is 1.7 nM, the koff was 5.7e-05 s⁻¹ and the kon was 34100 M⁻¹ s⁻¹. Besides, in assay [3], the binding result was “no binding (tested: up to 300 nM)”. Besides, the binding result in assay [4] is “no binding (tested: up to 300 nM)”.

B15: COVID19_P20_G06 (scFv, V domains shown)
VH: EVQLVESGGGLVQPGGSLRLSCAASGFTFSNSDMNWVRQAPGKGLEWVSGISGGGAGTYYADSVKGRFTISRDNSKNTLYLQMNSLRAEDTAVYYCVTYRDNSRDYFPHYFHDMDVWGQGTLVTVSS
VL: DIVMTQSPLSLPVTPGEPASISCRSSQSLVHSNGDTYLDWYLQKPGQSPQLLIYLGSIRAPGVPDRFSGSGSGTDFTLKISRVEAEDVGVYYCQQSYSTPWTFGGGTKVEIKR
Turning to B15, the results for the Kd in assay [1] and in assay [2] were 8.95 nM and under 50 nM, respectively. For the same molecule, in assay [1], the koff was 0.000834 s⁻¹. In assay [1], this molecule gave a kon of 93200 M⁻¹ s⁻¹. Also, the binding result in assay [3] and in assay [4] was “no binding (tested: up to 300 nM)” in each case.

B16: COVID19_P19_B09 (scFv, V domains shown)
VH: EVQLVESGGGLVQPGGSLRLSCAASGFTFSSHTIAWVRQAPGKGLEWLSHISSSGSTTYYADSVKGRFTISRDNSKNTLYLQMNSLRAEDTAVYYCVTQRDNSRDMSPHYFHDMDVWGQGTLVTVSS
VL: B15 VL with V30L, H31D, D35F, T36N, I58S, S98N
On to B16, for which the Kd in assay [1] is 15.9 nM; in assay [2], under 50 nM. In addition, in assay [1], the koff was determined as 0.00313 s⁻¹. In assay [1], this molecule showed a kon of 197000 M⁻¹ s⁻¹. In addition, the binding result in assay [3] and in assay [4] was “no binding (tested: up to 300 nM)” throughout.

B17: COVID19_P19_E01 (scFv, V domains shown)
VH: B4 VH with I51V, S53R, R56G, N57S, K58T, N99Q, L100R
VL: B15 VL
As to B17, in assay [1], the Kd was 41.7 nM, the koff came out at 0.00644 s⁻¹ and the kon is 155000 M⁻¹ s⁻¹. For the same molecule, the Kd in assay [2] is under 50 nM. Also, the binding result in assay [3] is on record as “no binding (tested: up to 300 nM)”. The binding result in assay [4] is “no binding (tested: up to 300 nM)”.

B18: COVID19_P19_C03 (scFv, V domains shown)
VH: B15 VH with G50R, S52N, G54D, A56S, G57T, Y59G, Y99T, R100G
VL: B15 VL with V30L, S98I
In the case of B18, the results for the Kd in assay [1] and in assay [2] were 35.3 nM and under 50 nM, respectively. The same molecule had a koff in assay [1] of 0.0058 s⁻¹. Moreover, the kon in assay [1] came to 164000 M⁻¹ s⁻¹. Moreover, the binding result in assay [3] and in assay [4] was “no binding (tested: up to 300 nM)” each time.
